Measurements reported in the supplement of paper PMC12764529.
± gives the half width of the 95% confidence interval.

Key:
[1] = folding stability dG unfold from chymotrypsin proteolysis; higher = more stable
Summary of the method: (§1)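 Only designs with AlphaFold2 dimer inter-PAE above 15 were retained; each was a mini-protein under 80 residues with no cysteine, in a PA-tagged cDNA display construct. After digestion with trypsin and chymotrypsin and sequencing, K50 was inferred by Bayesian fitting of counts, and unfolding free energy was derived per protease or combined against a sequence-predicted unfolded-state K50 and a shared folded-state K50.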

[2] = folding stability dG unfold (combined trypsin and chymotrypsin); higher = more stable
Summary of the method: as §1

[3] = folding stability dG unfold from trypsin proteolysis; higher = more stable
Summary of the method: as §1

Sequence | folding stability dG unfold [1] | folding stability dG unfold [2] | folding stability dG unfold [3]
SAGGSMTIKINGAEITDIEVRDDGTIRIKVRVTNENGEEVEVTLEIRIEPAPPVEVVHPDDPEALESAGGSA [r2_368_TrROS_Hall] | 2.45 ± 0.066 kcal/mol | 2.73 ± 0.097 kcal/mol | 3.09 ± 0.16 kcal/mol
SAGGSMTISLDETIDVPEDVGVTFTFADDTVATAYFDPSEGKVRVVVYDPNKPGTLLGEFTLPVLPSAGGSA [r2_266_TrMRF] | 1.41 ± 0.07 kcal/mol | 1.29 ± 0.11 kcal/mol | 0.976 ± 0.017 kcal/mol
SAGGSMTIVVETPEEVEKAIKALEDELKKKGIKKGDKIKKIKVEKNENGKLTVTIEVDGKKIKIEVSAGGSA [r2_120_TrROS_Hall] | 2.02 ± 0.25 kcal/mol | 1.63 ± 0.3 kcal/mol | 0.37 ± 0.15 kcal/mol
SAGGSMTLEELKNMTVEELRELLGEDAEVTVDEETGTITIRVPGKEVTIEVDEETGEVKIVEVKPVSAGGSA [r2_470_TrROS_Hall] | 2.27 ± 0.13 kcal/mol | 2.89 ± 0.26 kcal/mol | 3.31 ± 0.24 kcal/mol
SAGGSMTTPPTGEVQVFIDRKTDKWTIRIVDPNAPPTTEEVESEEEAEKVIAELEAKGYKVDTVEPLPSAGG [r13_727_JUSTAS] | 1.14 ± 0.5 kcal/mol | 0.913 ± 0.29 kcal/mol | 0.658 ± 0.16 kcal/mol
SAGGSMVIPTKVSSLEEAKQVAEEILKKLGRPLTLDDVSFDPEKFKAELKPDTPVVVKVKDPSGVTLGASAG [r5_503_JUSTAS] | 0.458 ± 0.15 kcal/mol | 0.409 ± 0.16 kcal/mol | 0.457 ± 0.032 kcal/mol
SAGGSMVKVEVHYDPERDLVLVTVEAPDDPELVDEFVERMKKLGAKRVEVFRFPEDGKVRILVEIGSAGGSA [r2_358_TrMRF] | 4.68 ± 0.081 kcal/mol | 4.36 ± 0.1 kcal/mol | 3.08 ± 0.11 kcal/mol
SAGGSNVEVERHPDGHMTFTFPDEDGKDVKITIHMHPDGMYMIRVPGNNQPIYFPPGQSIEDLLKLSAGGSA [r2_338_TrROS] | 2.88 ± 0.032 kcal/mol | 2.63 ± 0.098 kcal/mol | 2.2 ± 0.069 kcal/mol
SAGGSPDEAVPLPVPAKITLPGGAEFTVEEAVVLPNGEVLVKATLISPYPDPREAPFVVPLELLDISSAGGS [r16_498_TrMRF] | 0.395 ± 0.03 kcal/mol | 0.235 ± 0.066 kcal/mol | -0.338 ± 0.054 kcal/mol
SAGGSPKAREERFEKTLPDGTVVPVTLTRLPDGTVRVETTTYTYNSPEPVASTSTTTLPEAEVAAALSAGGS [r16_470_JUSTAS] | 0.684 ± 0.11 kcal/mol | 0.686 ± 0.086 kcal/mol | 0.631 ± 0.099 kcal/mol
SAGGSPKPVPVTITSVTSTSVEVYLPSTGATFTFNLNEEKTLTLPDGSKIYFTFNSDGSVTATVIEYGSAGG [r13_352_TrMRF] | 4.88 ± 0.051 kcal/mol | 4.83 ± 0.12 kcal/mol | 5.03 ± 0.73 kcal/mol
SAGGSPLVLTSEVEKKFENSPDKTVEKYKIKVTVYDPKTGKKLKEIELEKTVEKGGNEKIEEPIILSAGGSA [r2_271_JUSTAS] | 0.487 ± 0.21 kcal/mol | 0.419 ± 0.16 kcal/mol | 0.146 ± 0.084 kcal/mol
SAGGSPNYKINVEVEEYEPNPDNGKPYYRARIKIEWYNPENGREQTREIDFWMSPDKAEKFLKDILSAGGSA [r2_357_TrROS] | 2.56 ± 0.13 kcal/mol | 2.22 ± 0.17 kcal/mol | 1.89 ± 0.059 kcal/mol
SAGGSPPFRIKIDEIEILPNGIIQVTFKIDNGWPMTILIQMDPDGKVTIEIQFPGNGQPFEFELPISAGGSA [r2_361_TrROS] | 3.52 ± 0.07 kcal/mol | 3.27 ± 0.23 kcal/mol | 2.56 ± 0.14 kcal/mol
SAGGSPPLPLKITKITDTRYERNPDGQGWVKIEIRLPENGKPITIPVQADSPEQAEYAVKEALKKFSAGGSA [r2_248_TrROS] | -0.424 ± 0.56 kcal/mol | -0.31 ± 0.36 kcal/mol | -0.315 ± 0.16 kcal/mol
SAGGSPSMSPEELAKREKERILEELRKKGGSKTIPMKVEITVPDEKGNTTKYNIEINITVEVPEDKLSAGGS [r16_550_JUSTAS] | 1.31 ± 0.1 kcal/mol | 0.974 ± 0.15 kcal/mol | 0.622 ± 0.082 kcal/mol

Sequence | folding stability dG unfold [1] | folding stability dG unfold [2] | folding stability dG unfold [3]
SAGGSPVLKVEVFELEEDKLLLKIYFPKEEAGLTPEQKEALAKAIQELFPNTKAFTTDEELYIVVDSAGGSA [r2_256_TrMRF] | 2.38 ± 0.15 kcal/mol | 2.37 ± 0.12 kcal/mol | 2.06 ± 0.075 kcal/mol
SAGGSPVVLTKSPDGLLYVVTLTDPANSLDRVKAKVTAYDPNKPVPLGELTIELDPKTGKAVSALSSAGGSA [r2_324_JUSTAS] | 0.488 ± 0.089 kcal/mol | 0.21 ± 0.093 kcal/mol | -0.543 ± 0.097 kcal/mol
SAGGSPWIFVIKIEWEPRDPDGKKKKYEYSIVITATPNQLDELLEQIKKAPPGYKIKEVKIEVFPFSAGGSA [r2_75_TrROS] | 4.21 ± 0.086 kcal/mol | 3.82 ± 0.21 kcal/mol | 2.65 ± 0.18 kcal/mol
SAGGSQLDEYRKKVEEAIEKAKAEGKPVEKIELTGSEEVAKEVREWLEEQGIPKSVKVTVTPPAINESAGGS [r16_164_JUSTAS] | 1.13 ± 0.015 kcal/mol | 0.83 ± 0.077 kcal/mol | 0.433 ± 0.04 kcal/mol
SAGGSSESKTVTAPDGRVLEFTKSLDPTSSNSRYTLTVYAPESGEPLREAEFSSEEEAEKYIAEGLGSAGGS [r8_450_JUSTAS] | 0.487 ± 0.072 kcal/mol | 0.331 ± 0.068 kcal/mol | -0.0113 ± 0.067 kcal/mol
SAGGSSFTGTVTPVKVDPVNPDLVTVATTLTWPDGTTVPLTRTIPRSVYDSLPENISISVTLSPPSSAGGSA [r2_128_JUSTAS] | 1.33 ± 0.1 kcal/mol | 0.942 ± 0.1 kcal/mol | -0.0475 ± 0.15 kcal/mol
SAGGSSGSMSPVLSLFEPGTGVVTYLLKKNDKLYLLVSTGSPGVPPVPSSVSPANLAAGDPVWATAGSAGGS [r16_809_JUSTAS] | 0.77 ± 0.13 kcal/mol | 0.353 ± 0.1 kcal/mol | -0.924 ± 0.26 kcal/mol
SAGGSSIKVTITDKNGNEYEIEIPSSLSLEEAKEKVKEYLEKKGYKVESITVENLPPGEAEIKVLKSAGGSA [r2_148_JUSTAS] | 0.465 ± 0.21 kcal/mol | 0.423 ± 0.29 kcal/mol | 0.0509 ± 0.059 kcal/mol
SAGGSSITVPYPEGYEITVEVFPNYATITTKTPSSTLTKTVSFSTPVTVKTPSDKPVTINVPSPEVSAGGSA [r2_57_JUSTAS] | 0.533 ± 0.12 kcal/mol | 0.436 ± 0.18 kcal/mol | 0.303 ± 0.034 kcal/mol
SAGGSSKLTFKDPNSDGTYSVTYDPSTGKANVTTSNGSSATISFEGDTITLLESSSVPPSPSNPTTSSAGGS [r16_687_JUSTAS] | 0.252 ± 0.093 kcal/mol | 0.243 ± 0.09 kcal/mol | 0.123 ± 0.047 kcal/mol
SAGGSSLTTPDGVKVEVYENPENNTIYVFEKKPDGTYTLKTLTKEGDKVTEVSTKTIKSNEKEKLLSAGGSA [r2_336_JUSTAS] | 1.81 ± 0.081 kcal/mol | 1.52 ± 0.069 kcal/mol | 0.966 ± 0.029 kcal/mol
SAGGSSMINLTITITVKDPSTGKVTTIPLNKKLTPEEIEELVKEIIEKIEKENPDKPIEVLKVEINSAGGSA [r2_59_JUSTAS] | 2.48 ± 0.12 kcal/mol | 2.81 ± 0.25 kcal/mol | 3.4 ± 0.21 kcal/mol
SAGGSSMPLEVTEVKKIGDKIVITLRVPPSVGPLSLGLTIELKSKPVTITSTFDPSTTTATIEVGLSAGGSA [r2_261_JUSTAS] | 3.43 ± 0.18 kcal/mol | 3.25 ± 0.17 kcal/mol | 2.88 ± 0.1 kcal/mol
SAGGSSMQTTVFILPGPEVPVEEVKAKIAKELGLDFETVTFIPAPSREEAEALAAALGVDGIIVEVDSAGGS [r8_245_JUSTAS] | 2.662 ± 0.013 kcal/mol | 2.58 ± 0.052 kcal/mol | 2.43 ± 0.053 kcal/mol
SAGGSSMVDIKPGLVTEIRVETLPNGERVYVVEIPLENGERAVVKISEKFKSEEEKLKAIYEAVSKSAGGSA [r2_347_JUSTAS] | 2.47 ± 0.039 kcal/mol | 2.24 ± 0.12 kcal/mol | 1.71 ± 0.05 kcal/mol
